We go through 72 sequences from the supplement of paper PMC10567573.

± gives the standard deviation.

The data set can be described thus: protein stability index of a GFP-peptide fusion (GPS, HEK-293T) (PSI 1-6); higher = more stable. Particulars: c terminus: a fixed tail appended.
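Also: 24-mer peptide tiles fused after GFP, lentivirally expressed, FACS-sorted into six equal bins by GFP/DsRed ratio, decoded by Illumina sequencing, PSI is the read-weighted mean bin number.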

In the case of NPRAPVIIYKQTKGGVQNFNKDLV [CEP70], the protein stability index is, setting by setting: (treatment: DMSO) 2.52 ± 0.18; (treatment: MLN4924 1 uM, 8 h) 2.46 ± 0.25.
Take LKAIIFFDPDAKGLSDPGKIKRLR [HNF4A]: the protein stability index by setting is: (treatment: DMSO) 2.45 ± 0.33; (treatment: MLN4924 1 uM, 8 h) 2.37 ± 0.12.
Taken in the same sequence, the figures for QIITVTVQTGLDQYQQVPVEIVKS [IQUB] were 2.32 ± 0.17 and 2.07 ± 0.38.
Taken in the same sequence, the figures for RPLRSREFPQFEPQRYPACAQMLP [TRAF3IP2] were 3.07 ± 0.44 and 3.44 ± 0.15.
Take ETELSLRQLVEADINGLRRILDEL [KRT36]: the protein stability index reads like this: (treatment: DMSO) 3.12 ± 0.3; (treatment: MLN4924 1 uM, 8 h) 3.36 ± 0.34.
Taken in the same sequence, the figures for NGIHVCMVFEVLGHHLLKWIIKSN [SRPK2] were 3.01 ± 0.14 and 2.96 ± 0.29.
Taken in the same sequence, the figures for RYHLQQNVHFKEETVKLFICELVM [STK32A] were 2.35 ± 0.41 and 2.46 ± 0.26.
Taken in the same sequence, the figures for SPLEEKHDQCKCENLIMFQNLANE [MATN2] were 4.365 ± 0.004 and 4.05 ± 0.69.
On to DSMYGECRTYIIHYYLMDDTVEIR [EFHC1], for which the protein stability index amounted to 2.35 ± 0.6 (treatment: DMSO) and 2.6 ± 0.69 (treatment: MLN4924 1 uM, 8 h).
Turning to YKGHTDVVRYLLEQRADPNAKAHC [FEM1B], the protein stability index is, setting by setting: (treatment: DMSO) 3.27 ± 0.44; (treatment: MLN4924 1 uM, 8 h) 3.6 ± 0.17.
Taken in the same sequence, the figures for KPGNNEGSGAPSPLSKSSPATTVT [SNAP91] were 5.21 ± 0.11 and 5.1 ± 0.13.
TSDLGTTDVQKKKLVDAIVSGDTS [RIPK4]: the protein stability index came to 4.97 ± 0.21 (treatment: DMSO) and 5.09 ± 0.12 (treatment: MLN4924 1 uM, 8 h).
Taken in the same sequence, the figures for FGIKCAKCQVGFSSSDLVMRARDS [ISL2] were 2.37 ± 0.32 and 2.54 ± 0.58.
Taken in the same sequence, the figures for GMGLTGTMGMGMPNIAMTSGTVQP [CLINT1] were 3.84 ± 0.17 and 3.69 ± 0.13.
Taken in the same sequence, the figures for WKLQKKEHPPEVSRETQRTPMNHQ [FBXO34] were 4.52 ± 0.11 and 4.49 ± 0.16.
For the sequence YEIPHFRLKKVENIKIWLSLRSYL [PHTF1], the protein stability index turned out to be 2.8 ± 1 (treatment: DMSO) and 2.92 ± 0.9 (treatment: MLN4924 1 uM, 8 h).
On to ADESVLWQLFGPFGAVTNVKVIRD [ELAVL3], for which the protein stability index reads like this: (treatment: DMSO) 2.23 ± 0.18; (treatment: MLN4924 1 uM, 8 h) 2.35 ± 0.33.
Taken in the same sequence, the figures for SMNFSMMSTNTVGLGLPMSRSQNT [CLINT1] were 3.19 ± 0.36 and 3.44 ± 0.38.
Taken in the same sequence, the figures for LPDGCQPLQLLREMRQALQALLKE [CBY2] were 2.45 ± 0.35 and 2.51 ± 0.33.
As for PDYGVPSSAASLIDFLRVVRNQQS [PTPN9], the protein stability index is, setting by setting: (treatment: DMSO) 2.84 ± 0.24; (treatment: MLN4924 1 uM, 8 h) 3.14 ± 0.25.
Taken in the same sequence, the figures for DEGEEFDDWEDDYDYPEEEQLSGA [EID1] were 5.39 ± 0.22 and 5.3 ± 0.22.
Taken in the same sequence, the figures for FLKNTEVSSMECEKNLYWICNKPY [CD69] were 2.32 ± 0.61 and 2.27 ± 0.21.
With PDQLPQNNTLVALPIVAIENILSF [FBXO28], the protein stability index (treatment: DMSO) worked out at 2.34 ± 0.24 and the protein stability index (treatment: MLN4924 1 uM, 8 h) was 2.38 ± 0.27.
Taken in the same sequence, the figures for RAYGFRGPGPQLRRGWRPSSREDS [CHGA] were 3.9 ± 0.4 and 4.07 ± 0.47.
Taken in the same sequence, the figures for PHVALAVRYNRVGILRRILRTLRD [ANKRD9] were 2.73 ± 0.073 and 2.84 ± 0.3.
In the case of ALSPAGVCGGAQRPGHLPGLLLGS [CDC25B], the protein stability index was determined as 2.51 ± 0.22 (treatment: DMSO) and 2.93 ± 0.46 (treatment: MLN4924 1 uM, 8 h).
Taken in the same sequence, the figures for FCIDSENRIGNSGVEEIKGHPFFE [STK38L] were 2.97 ± 0.58 and 3.03 ± 0.18.
Taken in the same sequence, the figures for VFLIIYYLDPSVLSGVSCFVMFLC [ARL6IP1] were 2.64 ± 0.29 and 2.91 ± 0.91.
Taken in the same sequence, the figures for LKHPNIVRLHDSISEEGHHYLIFD [CAMK2A] were 2.58 ± 0.32 and 2.79 ± 0.25.
Take KSSLIWSYPAGSLTFPVRPFFYTG [TRIM43]: the protein stability index is 2.19 ± 0.26 (treatment: DMSO) and 2.08 ± 0.18 (treatment: MLN4924 1 uM, 8 h).
Taken in the same sequence, the figures for PDAIRSRSNTLRERSQVRGSAPPR [PCDHGC5] were 5 ± 0.33 and 4.84 ± 0.23.
Taken in the same sequence, the figures for HMEALEIAANLENKATNTDHLTTV [C8orf76] were 4.76 ± 0.18 and 4.78 ± 0.23.
Taken in the same sequence, the figures for EFKSSFSQSFSLYVKYQVAIHQDP [ATE1] were 2.63 ± 0.95 and 2.52 ± 0.95.
As to NKALWENNKLKLQQKLVIDTVTEV [CBY2], the protein stability index (treatment: DMSO) is 3.16 ± 0.35 and the protein stability index (treatment: MLN4924 1 uM, 8 h) worked out at 3.29 ± 0.25.
Taken in the same sequence, the figures for PRGRLDLATQSLTVETCRALGKLL [LRRC45] were 2.38 ± 0.28 and 2.31 ± 0.31.
Taken in the same sequence, the figures for GTMGMAPLGNTPMMNQSMMGMNMN [CLINT1] were 3.39 ± 0.45 and 3.52 ± 0.21.
Taken in the same sequence, the figures for LRRQKSLRLEWETQQELRKIREKE [IQUB] were 3.94 ± 0.28 and 4.02 ± 0.091.
For the sequence NSSTWGSLKQALKGLSVEFALLAD [SNX8], the protein stability index by setting is: (treatment: DMSO) 2.39 ± 0.55; (treatment: MLN4924 1 uM, 8 h) 2.45 ± 0.36.
Turning to VLVHCEAGISRSPTICMAYLMKTK [DUSP5], the protein stability index turned out to be 2.77 ± 0.61 (treatment: DMSO) and 2.39 ± 0.41 (treatment: MLN4924 1 uM, 8 h).
Turning to LQNEVRQLTEKLARVNENLARKIA [SSNA1], the protein stability index is, setting by setting: (treatment: DMSO) 2.27 ± 0.29; (treatment: MLN4924 1 uM, 8 h) 2.2 ± 0.29.
Taken in the same sequence, the figures for ALPEAPAPLLPHITATSLLGTRES [BCL2L13] were 4.67 ± 0.23 and 4.56 ± 0.16.
In the case of PGTGKTSLCKALAQKLTIRLSSRY [TRIP13], the protein stability index (treatment: DMSO) came to 2.92 ± 0.64 and the protein stability index (treatment: MLN4924 1 uM, 8 h) amounted to 2.63 ± 0.65.
Taken in the same sequence, the figures for ENHPQESKGQPRSQEESEEGEEDA [CHGB] were 5.79 ± 0.094 and 5.64 ± 0.22.
Taken in the same sequence, the figures for SCLLPSSEAKLYGRCELARVLHDF [SPACA3] were 2.08 ± 0.57 and 2.1 ± 0.26.
Taken in the same sequence, the figures for IENYKKQTRNGLGKDHEILRRRIE [FUT8] were 3.67 ± 0.24 and 3.87 ± 0.24.
With LLELQSQQACTHTKETEQLRSQLQ [CCDC89], the protein stability index turned out to be 4.06 ± 0.32 (treatment: DMSO) and 4.29 ± 0.25 (treatment: MLN4924 1 uM, 8 h).
Taken in the same sequence, the figures for FTKNNFFVEKNPTIVNFPITNVDL [USP39] were 2.98 ± 0.52 and 2.7 ± 0.29.
Turning to NVHTGEFRNCGACVTLMQGHEGSV [WDR88], the protein stability index was found to be 2.35 ± 0.5 (treatment: DMSO) and 2.17 ± 0.2 (treatment: MLN4924 1 uM, 8 h).
Taken in the same sequence, the figures for GSTLIFYKYCDHENAAFKDVALVL [TOR1AIP2] were 2.43 ± 0.59 and 2.58 ± 0.73.
Taken in the same sequence, the figures for YKRRIDAENSPYLNPQLVQPAKKP [ESRRG] were 4.01 ± 0.27 and 3.85 ± 0.33.
Taken in the same sequence, the figures for LLSRFSVGIFHLMQIAVPCAFLLL [TMEM175] were 2.6 ± 0.35 and 2.24 ± 0.25.
On to GACYGDDACFVARHRSADVLGVAD [PPTC7], for which the protein stability index was determined as 4.18 ± 0.34 (treatment: DMSO) and 4.817 ± 0.045 (treatment: MLN4924 1 uM, 8 h).
Taken in the same sequence, the figures for DWNEWRDYHLLHPVENIPEIILYW [SLC25A25] were 2.35 ± 0.51 and 2.2 ± 0.12.
Take IFGASSVDFSLSGRLLFAGYNDYT [GNB5]: the protein stability index (treatment: DMSO) worked out at 2.6 ± 0.63 and the protein stability index (treatment: MLN4924 1 uM, 8 h) worked out at 2.12 ± 0.49.
Taken in the same sequence, the figures for LKSELGRKWHKASNYIFVAIFWIV [P2RY14] were 2.24 ± 0.61 and 2.31 ± 0.19.
Consider SIYIHVYFTKSGFHPDPRQKALYR [CLPTM1], for which the protein stability index reads like this: (treatment: DMSO) 2.86 ± 0.6; (treatment: MLN4924 1 uM, 8 h) 2.76 ± 0.22.
Taken in the same sequence, the figures for WIEQLNECKQLSESQVKSLCEKAK [PPP2CA] were 3.85 ± 0.18 and 3.87 ± 0.1.
Taken in the same sequence, the figures for DLDANLRKLNSRLFVIRGQPADVF [CRY1] were 2.07 ± 0.29 and 2.55 ± 0.4.
For VPFVRVKREREVDEDSEPEREVRA [USP39], the protein stability index stood at 5.15 ± 0.26 (treatment: DMSO) and 5.17 ± 0.14 (treatment: MLN4924 1 uM, 8 h).
Taken in the same sequence, the figures for DMIYVSGGFDGSRRHTSMERYDPN [KLHL12] were 3.85 ± 0.15 and 4 ± 0.3.
Taken in the same sequence, the figures for VAHVKHLSASQKALKEKEKASWSS [COX4I1] were 3.57 ± 0.4 and 3.83 ± 0.34.
Taken in the same sequence, the figures for RSVKVICLGSLASKLSRKYVKAKK [FAN1] were 2.37 ± 0.25 and 2.37 ± 0.28.
Turning to IDYKTTTILLDGRRVRLELWDTSG [RAB40C], the protein stability index reads like this: (treatment: DMSO) 2.25 ± 0.61; (treatment: MLN4924 1 uM, 8 h) 2.21 ± 0.26.
Taken in the same sequence, the figures for GGMQALGLHLTDPSQRLVQNCLWT [CTNNB1] were 2.11 ± 0.13 and 2.1 ± 0.44.
Taken in the same sequence, the figures for GHWTNVTPMATKRSGAGVALLNDH [KLHL12] were 3.48 ± 0.079 and 3.62 ± 0.085.
Taken in the same sequence, the figures for RIADKFTQHNFQEVMESEEFMLLP [KLHL20] were 3.5 ± 0.35 and 3.54 ± 0.22.
As for GLFAVGEHTGEVRTARALLDRDAL [PCDHGA10], the protein stability index is, setting by setting: (treatment: DMSO) 3.84 ± 0.57; (treatment: MLN4924 1 uM, 8 h) 3.81 ± 0.29.
On to IFAWNKWIDIKQFVWYTPPTFMIA [STEAP1], for which the protein stability index is, setting by setting: (treatment: DMSO) 2.97 ± 1.2; (treatment: MLN4924 1 uM, 8 h) 2.95 ± 0.64.
Taken in the same sequence, the figures for RPKLSEEQQRIIAILLDAHHKTYD [VDR] were 2.58 ± 0.28 and 2.75 ± 0.41.
Taken in the same sequence, the figures for CEEWSFFHAYYYCFITLTTIGFGD [KCNK9] were 3.33 ± 0.098 and 2.96 ± 0.37.
Taken in the same sequence, the figures for RQKKLMHKLQEEKAFREEMKIFRE [CCDC70] were 3.37 ± 0.28 and 3.59 ± 0.35.
For IGPPSAAAIFKIYLSCLEELMKCQ [TRIP13], the protein stability index came out at 2.16 ± 0.31 (treatment: DMSO) and 2.21 ± 0.34 (treatment: MLN4924 1 uM, 8 h).
